Data on four molecules can be found in patent publication US20180127504A1 (ACADEMIA SINICA, published 2018).

Positions count from the first letter of the chain named.

The target of assay [1] is T1, VEGFR2(1-7) (human, UniProt P35968 20-813).
T1 construct: Expressed on 293T cells; also called full-length extracellular region of VEGFR2, domains 1-7, Met1 to Leu813
Kind of assay: immunofluorescent staining of transfected 293T cells.

The target in assay [2] is T2, VEGFR2(2-7) (human, UniProt P35968 111-813).
T2 construct: also called domains 2-7, Ala111 to Leu813
Described as above.

Assay [3] addresses T3, VEGFR2(4-7) (human, UniProt P35968 321-813).
T3 construct: also called domains 4-7, Phe321 to Leu813
The description is as above.

In assay [4] the target is T4, VEGFR2(del2-3) (human, UniProt P35968 20-813).
T4 construct: Expressed on 293T cells; also called VEGFR2 with domains 2 and 3 deleted
The description is as above.

Assay [5] concerns the target T5, VEGFR2(del3) (human, UniProt P35968 20-813).
T5 construct: Expressed on 293T cells; also called VEGFR2 with domain 3 deleted
Described as above.

For assay [6], the target named is T6, VEGFR2(M1) (human, UniProt P35968 20-813).
T6 construct: Expressed on 293T cells; single substitutions derived from the printed replacement of the six-residue stretch; also called VEGFR2-M1 mutant protein
T6 chain: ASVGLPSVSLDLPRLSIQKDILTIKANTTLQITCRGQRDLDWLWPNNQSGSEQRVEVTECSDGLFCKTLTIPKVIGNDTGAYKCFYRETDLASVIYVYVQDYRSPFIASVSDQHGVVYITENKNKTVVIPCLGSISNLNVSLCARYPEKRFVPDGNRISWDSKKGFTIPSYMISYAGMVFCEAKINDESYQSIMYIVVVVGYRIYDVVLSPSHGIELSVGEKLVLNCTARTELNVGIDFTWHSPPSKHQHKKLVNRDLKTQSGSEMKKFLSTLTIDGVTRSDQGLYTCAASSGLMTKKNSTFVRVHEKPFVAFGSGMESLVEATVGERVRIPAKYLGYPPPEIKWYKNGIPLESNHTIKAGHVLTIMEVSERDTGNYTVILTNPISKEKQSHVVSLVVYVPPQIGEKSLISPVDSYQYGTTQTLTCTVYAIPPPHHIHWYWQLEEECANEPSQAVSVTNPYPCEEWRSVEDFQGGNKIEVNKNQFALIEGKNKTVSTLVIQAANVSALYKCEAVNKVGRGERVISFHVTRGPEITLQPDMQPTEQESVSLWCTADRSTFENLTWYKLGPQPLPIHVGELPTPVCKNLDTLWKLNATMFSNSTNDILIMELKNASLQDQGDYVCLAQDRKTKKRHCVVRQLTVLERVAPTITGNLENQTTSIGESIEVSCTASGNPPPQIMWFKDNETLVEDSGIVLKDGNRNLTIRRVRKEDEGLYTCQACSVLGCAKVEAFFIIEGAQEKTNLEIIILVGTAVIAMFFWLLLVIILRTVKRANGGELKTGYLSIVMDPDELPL
Described as above.

For assay [7], the target named is T7, VEGFR2(M2) (human, UniProt P35968 20-813).
T7 construct: Expressed on 293T cells; single substitutions derived from the printed replacement of the seven-residue stretch
T7 chain: T6 chain with T240N, H242E, S243Y, P245S, T260P, Q261F, S262P, S264T, E265V, M266A
The assay is described as above.

Assay [8] addresses T8, VEGFR2 on tumor vascular endothelium (frozen sections of human lung cancer specimens) (human, UniProt P35968).
T8 construct: endogenous, on CD31-positive tumor vascular endothelium in frozen tissue sections; also called human tumor vasculature
The assay can be described thus: immunofluorescence on frozen sections of human lung cancer, scFv detected by anti-E tag and rhodamine secondary antibody, CD31 co-staining.

Assay [9] addresses T9, VEGFR2-Fc recombinant protein (R&D Systems) (human, UniProt P35968 20-764).
T9 construct: Bought protein; also called VEGFR2 recombinant protein; immobilized VEGFR2; not shown: Fc part of the bought fusion protein; not described
The assay can be described thus: SPR, BIACORE T100, VEGFR2-Fc coupled to CM5 chip, IgG as analyte. The procedure:
(§1) The affinity and kinetics of anti-VEGFR2 antibodies were measured by surface plasmon resonance in a BIACORE T100™ (GE healthcare). VEGFR2-Fc protein was coupled to an EDC- and NHS-activated CM5 sensor chip in a BIACORE flow cell, and then blocked with ethanolamine according to the manufacturer's directions. Associated and dissociated phases were monitored under continuous flow of 30 μl/min, using antibody concentrations ranging from 0.1 to 100 nM for 5 min. Regeneration was performed by injection of regenerate buffer (0.2 M NaCl, 10 mM glycine, pH 2.7). To determine binding constants, the sensorgrams were fit globally to a sample 1:1 interaction model using BIAevaluation software (GE healthcare).
(§2) We analyzed the affinity of both human antibodies to VEGFR2 using a BIACORE T100™.
Background: SPR reads the build-up and loss of mass on a sensor chip optically.

Assay [10] has as its target T9, VEGFR2-Fc recombinant protein (R&D …). Kind of assay: solid-phase competitive ELISA: antibody against 4 nM VEGF-A on immobilized VEGFR2. On the technique in general: ELISA stands for enzyme-linked immunosorbent assay.
Assay [11] has the same target. The assay can be described thus: surface plasmon resonance, BIACORE T100, VEGFR2-Fc coupled to a CM5 chip, purified IgG as analyte. How it is done:
as §1, §2

Assay [12] concerns the target T10, c-Met-Fc control protein (UniProt P08581 25-932, limits assumed).
T10 construct: Bought control protein; also called Met-Fc (R&D); c-Met-Fe; not shown: Fc part of the bought fusion protein; not described
The assay can be described thus: phage ELISA on coated MET-Fc, anti-M13-HRP detection. The procedure: (§3) The selected phages were further examined by ELISA screening. The 96-well plates were coated with […] of VEGFR2-Fc, Met-Fc (R&D), or BSA (Sigma) protein in 0.1 M sodium bicarbonate overnight at 4° C. After blocking with 1% BSA in PBS (w/v) for 2 hr at room temperature, 70-randomly selected phage clones were added to the plates at a 1:2 dilution in 1% BSA, and incubated for 1 hr at room temperature. Following washes with PBST, the plates were incubated with a 1:2000 dilution of horseradish peroxidase (HRP)-conjugated mouse anti-M13 phage antibody (GE) for 1 hr. After washing with PBST, the colorimetric reaction was developed with the peroxidase substrate ortho-phenylenediamine (OPD; Sigma) plus H₂O₂ for 15 min, and then terminated by the addition of 3 N HCl. The absorbance at 490 nm was determined using a microplate reader (SpectraMax, Molecular Devices). Plasmid DNA of positive clones were isolated and sequenced using the pCANTAB5 sequencing primer set.
(§4) After four rounds of affinity selection (biopanning), the titer of bound phage increased by as much as 3,455-fold (FIG. 1A).

For assay [13], the target named is T9, VEGFR2-Fc recombinant protein (R&D …). The assay can be described thus: phage ELISA, 1x10^9 cfu phage on coated VEGFR2-Fc, anti-M13-HRP detection. The procedure: as §3, §4
For assay [14], the target named is T11, VEGFR2 on the cell surface of human umbilical vein endothelial cells (HUVEC) (human, UniProt P35968 20-1356).
T11 construct: Endogenous receptor of human cells; also called cell-surface VEGFR2; cellular VEGFR2
T11 sequence (P35968 20-1356 limits assumed): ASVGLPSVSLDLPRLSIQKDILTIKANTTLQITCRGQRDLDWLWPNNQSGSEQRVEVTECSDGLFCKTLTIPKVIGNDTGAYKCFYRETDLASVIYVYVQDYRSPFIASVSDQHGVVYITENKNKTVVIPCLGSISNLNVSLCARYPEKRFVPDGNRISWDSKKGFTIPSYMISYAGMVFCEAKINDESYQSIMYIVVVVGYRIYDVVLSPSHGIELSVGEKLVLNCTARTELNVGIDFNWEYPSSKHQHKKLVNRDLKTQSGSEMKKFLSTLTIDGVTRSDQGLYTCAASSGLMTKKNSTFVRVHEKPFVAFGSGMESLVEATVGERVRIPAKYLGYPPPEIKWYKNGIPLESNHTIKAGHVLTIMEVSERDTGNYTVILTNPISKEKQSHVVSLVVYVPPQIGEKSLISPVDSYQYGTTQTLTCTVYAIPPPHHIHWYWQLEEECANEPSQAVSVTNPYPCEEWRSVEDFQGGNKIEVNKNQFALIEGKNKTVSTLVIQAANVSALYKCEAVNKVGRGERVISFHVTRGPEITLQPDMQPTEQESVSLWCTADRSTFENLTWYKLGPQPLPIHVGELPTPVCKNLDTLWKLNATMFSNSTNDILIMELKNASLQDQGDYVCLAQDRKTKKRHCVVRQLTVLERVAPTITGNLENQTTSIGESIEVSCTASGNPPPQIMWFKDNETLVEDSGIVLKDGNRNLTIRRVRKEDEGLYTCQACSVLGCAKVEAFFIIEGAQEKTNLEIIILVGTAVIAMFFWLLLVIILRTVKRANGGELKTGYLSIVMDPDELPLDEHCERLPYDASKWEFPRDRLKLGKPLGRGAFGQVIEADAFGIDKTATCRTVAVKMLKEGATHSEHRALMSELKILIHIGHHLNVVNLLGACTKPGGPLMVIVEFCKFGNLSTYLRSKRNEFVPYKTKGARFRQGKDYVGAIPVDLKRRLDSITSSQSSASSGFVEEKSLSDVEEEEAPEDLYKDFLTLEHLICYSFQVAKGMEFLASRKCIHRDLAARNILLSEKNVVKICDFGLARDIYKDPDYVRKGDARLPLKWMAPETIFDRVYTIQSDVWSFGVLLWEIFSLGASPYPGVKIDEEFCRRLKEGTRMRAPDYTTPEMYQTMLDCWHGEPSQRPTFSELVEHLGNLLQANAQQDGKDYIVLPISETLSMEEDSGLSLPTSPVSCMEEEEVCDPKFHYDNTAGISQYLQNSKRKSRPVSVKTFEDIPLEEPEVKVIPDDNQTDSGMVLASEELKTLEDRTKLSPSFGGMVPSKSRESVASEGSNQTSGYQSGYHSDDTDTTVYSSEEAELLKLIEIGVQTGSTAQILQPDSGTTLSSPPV
The assay can be described thus: flow cytometry on HUVECs, 1x10^10 cfu phage, anti-M13 and PE-labelled secondary antibody. The procedure: About 1×10⁴ HUVEC were incubated with the selected anti-VEGFR2 phage clones at 4° C. for 1 hour in FACS buffer (PBS containing 1% fetal bovine serum). After the cells were washed with FACS buffer, they were first incubated with mouse anti-M13 phage Ab for 1 hr at 4° C., and then with R-phycoerythrin-conjugated goat anti-mouse IgG (Jackson Immuno Research) for 30 min at 4° C. Flow cytometry was performed with a FACSCantoII (BD), and emission fluorescence intensity was measured with FACS Diva software (BD) to quantitatively compare binding affinities.
as §4

T9 sequence (P35968 20-764 limits assumed): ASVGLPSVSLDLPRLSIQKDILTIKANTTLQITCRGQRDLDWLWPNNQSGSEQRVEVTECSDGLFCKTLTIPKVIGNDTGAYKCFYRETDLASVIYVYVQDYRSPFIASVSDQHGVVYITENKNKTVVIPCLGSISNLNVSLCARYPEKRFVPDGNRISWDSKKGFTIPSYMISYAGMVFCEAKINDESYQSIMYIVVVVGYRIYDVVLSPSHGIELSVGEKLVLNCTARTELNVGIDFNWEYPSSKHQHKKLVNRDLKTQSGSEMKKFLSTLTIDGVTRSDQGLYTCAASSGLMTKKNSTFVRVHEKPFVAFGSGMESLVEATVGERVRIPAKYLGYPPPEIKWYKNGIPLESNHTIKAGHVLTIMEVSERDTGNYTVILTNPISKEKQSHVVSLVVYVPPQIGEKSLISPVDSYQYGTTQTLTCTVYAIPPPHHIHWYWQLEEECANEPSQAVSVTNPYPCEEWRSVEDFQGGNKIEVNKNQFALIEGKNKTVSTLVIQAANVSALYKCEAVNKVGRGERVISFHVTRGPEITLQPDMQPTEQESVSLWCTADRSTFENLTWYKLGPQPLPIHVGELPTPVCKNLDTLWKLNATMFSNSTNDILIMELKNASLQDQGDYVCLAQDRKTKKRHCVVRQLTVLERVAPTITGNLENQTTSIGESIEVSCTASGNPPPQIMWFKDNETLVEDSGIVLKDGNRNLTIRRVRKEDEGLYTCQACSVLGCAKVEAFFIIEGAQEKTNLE
T10 sequence (P08581 25-932 limits assumed): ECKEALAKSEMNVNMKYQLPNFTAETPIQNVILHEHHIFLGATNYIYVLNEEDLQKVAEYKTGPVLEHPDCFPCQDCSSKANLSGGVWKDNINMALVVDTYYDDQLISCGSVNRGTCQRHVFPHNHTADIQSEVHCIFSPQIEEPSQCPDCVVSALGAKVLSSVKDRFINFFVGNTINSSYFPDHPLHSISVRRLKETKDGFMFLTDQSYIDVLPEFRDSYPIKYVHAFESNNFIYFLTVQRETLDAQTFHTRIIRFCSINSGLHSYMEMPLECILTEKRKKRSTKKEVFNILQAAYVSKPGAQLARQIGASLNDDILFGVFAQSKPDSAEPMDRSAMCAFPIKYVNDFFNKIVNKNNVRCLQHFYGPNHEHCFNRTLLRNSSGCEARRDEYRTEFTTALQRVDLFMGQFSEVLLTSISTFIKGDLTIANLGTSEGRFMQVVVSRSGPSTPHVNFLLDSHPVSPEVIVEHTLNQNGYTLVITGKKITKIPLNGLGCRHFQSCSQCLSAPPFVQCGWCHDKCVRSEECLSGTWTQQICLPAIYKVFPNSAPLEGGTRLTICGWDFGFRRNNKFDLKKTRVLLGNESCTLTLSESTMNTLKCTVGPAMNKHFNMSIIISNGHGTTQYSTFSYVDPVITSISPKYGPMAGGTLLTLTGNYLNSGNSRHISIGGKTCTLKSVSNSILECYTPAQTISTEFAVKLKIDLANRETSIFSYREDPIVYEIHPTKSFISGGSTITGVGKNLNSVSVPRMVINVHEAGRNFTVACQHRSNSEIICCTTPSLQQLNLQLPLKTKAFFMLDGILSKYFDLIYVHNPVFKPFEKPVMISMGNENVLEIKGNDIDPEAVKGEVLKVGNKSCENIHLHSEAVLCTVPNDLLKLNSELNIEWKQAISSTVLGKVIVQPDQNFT

B1: R2S28 (scFv, V domains shown)
VH: EVQLVESGGALVQPGGSLRLSCVGSEFTFSHYNLHWVRQAPGKGLEWLAVISDDGRNKYYGDSVKGRFTISRDNSKNTLYLQMNGLRAEDTAVYYCARVPTVWRGGVYDIWGQGTMVTVSS
VL: EIVLTQSPATLSLSPGERATLSCRASQSVGSYLAWYQQRPGQPPRLLIYDASNRATGVAARFSGSGSGTDFTLTIDSLEAEDAATYYCHQSSSLPRTFGQGTKLEIK
notes: also called soluble anti-VEGFR2 scFv from phage clone R2PC28
Take B1: the binding result is recorded as “binds” in assay [1]; “no binding” in assay [2]; “no binding” in assay [3]; “binds” in [4]; “binds” in assay [5]; “binds” in [6]. Further, the binding result in assay [7] and in assay [8] was “binds” in each case.

B2: anti-VEGFR2-AF fully human antibody (hAb) (antibody, human IgG1)
heavy: not shown
light: DIQMTQSPSSLSASVGDRVTITCKASDDIINYLNWYQQKPGEAPKLLIYDASILETGVPSRFSGSGSGTDFTFTISSLQPEDIATYYCQQLDDIPITFGGGTKLEIK
notes: also called anti-VEGFR2-AF hAb; R2S12-AF in human IgG1 backbone; not shown: kappa constant region of vector p-Kappa-HuGs
Broadly, the Kd is the constant that tells how readily two partners part at equilibrium. Usually IC50 stands for the concentration that gives 50% inhibition. Usually koff stands for the rate constant with which the complex falls apart. Usually kon stands for the rate constant with which the complex forms. On to B2, for which the Kd in assay [9] worked out at 0.264 nM. For the same molecule, the IC50 in [10] was found to be 0.88 nM. For the same molecule, in [11], the off-rate (koff) was determined as 0.000442 s⁻¹ and the kon is 1.67e+06 M⁻¹ s⁻¹.

B3: anti-VEGFR2 fully human antibody (hAb) (antibody)
heavy: not shown
light: B2 light with L91Y, D93I, I94L, I96L
notes: also called anti-VEGFR2 hAb; R2S12 in human IgG1 backbone; not shown: kappa constant region of vector p-Kappa-HuGs
For the molecule B3, the Kd in [9] amounted to 2.1 nM. Moreover, the IC50 in [10] came to 1.87 nM. Besides, in assay [11], the koff came to 0.000472 s⁻¹ and the kon came out at 225000 M⁻¹ s⁻¹.

B4: R2PC45 (scFv, V domains shown)
VH: QVNLRESGGGVVQPGRSLRLSCAASGFTFSSYAMHWVRQAPGKGLEWVAVISYDGSNKYYADSVKGRFTISRDNSKNTLYLQMNSLRAEDTAVYYCAREQDYGSSSGDAFDIWGQGTMVTVSS
VL: DIQMTQSPSSLSASVGDRVTITCRASQRISSYLNWYQQKPGKAPKLLIYDASNLQSGVPSRFSGSGSGTDFTLTINGLQPDDFAIYFCHQSYSAPPTFGQGTKVEIK
notes: also called anti-VEGFR2 scFv phage clone 45
Take B4: the results for the binding result in assay [12], in assay [13] and in assay [14] were “no binding (tested: 1x10^9 cfu)”, “binds” and “binds”, respectively.
